Results from US20070099837A1.

Target: human zFGF5 (human) (UniProt O76093)
Test: cell-based or functional assay

Chain of human zFGF5 (human) (O76093 28-207): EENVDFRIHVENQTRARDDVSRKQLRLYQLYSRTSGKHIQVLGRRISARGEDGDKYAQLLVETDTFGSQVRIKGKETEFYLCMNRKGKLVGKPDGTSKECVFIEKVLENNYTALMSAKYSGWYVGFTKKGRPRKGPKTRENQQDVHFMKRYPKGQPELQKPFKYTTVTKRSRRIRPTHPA

Cell Proliferation (percent of control), BAF3 cells expressing FGFR3α-IIIc with zFGF5, soluble receptor at 0 fold-excess (percent of control)	Cell Proliferation (percent of control), BAF3 cells expressing FGFR3α-IIIc with zFGF5, soluble receptor at 62.5 fold-excess (percent of control)	Cell Proliferation (percent of control), BAF3 cells expressing FGFR3α-IIIc with zFGF5, soluble receptor at 125 fold-excess (percent of control)	Cell Proliferation (percent of control), BAF3 cells expressing FGFR3α-IIIc with zFGF5, soluble receptor at 250 fold-excess (percent of control)	Cell Proliferation (percent of control), BAF3 cells expressing FGFR3α-IIIc with zFGF5, soluble receptor at 500 fold-excess (percent of control)	Cell Proliferation (percent of control), BAF3 cells expressing FGFR3α-IIIc with zFGF5, soluble receptor at 1000 fold-excess (percent of control)	Cell Proliferation (percent of control), BAF3 cells expressing FGFR3α-IIIc with zFGF5, soluble receptor at 0.8 fold-excess (percent of control)	Cell Proliferation (percent of control), BAF3 cells expressing FGFR3α-IIIc with zFGF5, soluble receptor at 1.6 fold-excess (percent of control)	Cell Proliferation (percent of control), BAF3 cells expressing FGFR3α-IIIc with zFGF5, soluble receptor at 3.2 fold-excess (percent of control)	Cell Proliferation (percent of control), BAF3 cells expressing FGFR3α-IIIc with zFGF5, soluble receptor at 6.3 (printed 6..3) fold-excess (percent of control)	Cell Proliferation (percent of control), BAF3 cells expressing FGFR3α-IIIc with zFGF5, soluble receptor at 12.5 fold-excess (percent of control)	Cell Proliferation (percent of control), BAF3 cells expressing FGFR3α-IIIc with zFGF5, soluble receptor at 25 fold-excess (percent of control)	Cell Proliferation (percent of control), BAF3 cells expressing FGFR3α-IIIc with zFGF5, soluble receptor at 50 fold-excess (percent of control)	Cell Proliferation (percent of control), BAF3 cells expressing FGFR3α-IIIc with zFGF5, soluble receptor at 100 fold-excess (percent of control)	Substance
100	101	90	91	101	99	–	–	–	–	–	–	–	–	FGFR2α-IIIb/Fc soluble receptor (from UniProt P21802 22-378) (Fc fusion)
100	–	–	–	–	–	85	66	37	5	1	0.2	0	0	FGFR3α-IIIc/Fc soluble receptor (Fc fusion)
